Where two headings read alike, the source gives them in different places.
How the values were obtained:
[1] = target: T1, purified recombinant 16 kDa heat shock protein of M. tuberculosis (Mycobacterium tuberculosis, UniProt P9WMK1); assay: far-Western, overlay or dot blot; conditions: both partners purified
T1 construct: also called recombinant 16 kDa protein; recombinant 16 kDa hsp; source: E. coli BL21-AI, purified (urea lysis, Ni-NTA); not shown: AVI-tag, C-terminal, kept; His6, C-terminal, kept
T1 sequence (P9WMK1 whole entry): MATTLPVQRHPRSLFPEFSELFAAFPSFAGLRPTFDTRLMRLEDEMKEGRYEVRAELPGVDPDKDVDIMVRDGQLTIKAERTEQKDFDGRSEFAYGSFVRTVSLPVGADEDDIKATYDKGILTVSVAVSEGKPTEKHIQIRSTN

[2] = target: 16 kDa heat shock protein of M. tuberculosis, in M. tuberculosis lysate (Mycobacterium tuberculosis (lysates of …, UniProt P9WMK1))
16 kDa heat shock protein of M. tuberculosis, in M. tuberculosis lysate (Mycobacterium tuberculosis, sequence (P9WMK1 whole entry): as above

[3] = target: T1, purified recombinant 16 kDa heat shock …

Row | Binder | binding result [1] | binding result [2] | binding result [3]
1 | VHH A-28 (VHH, source: E. coli BL21-AI, purified (urea lysis, Ni-NTA)) VHH: QVQLQDSGGGLVQAGDSLRLSCTYSGRSFSNHAMGWFRQAPGKERGFVAAIGWINGGTYYADSVKGRFIISRDNDKNTLYLQMNNLKPEDTAVYYCAARNALRSISFNLSEYAYWGQGTQVTVSS | binds |  | 
2 | A-93 (VHH) VHH: QVQLQESGGGLVQAGGSLRLSCAASRRLYSSYSLGWFRQAPGKEREFVAALGWIANGTYYADSAKGRFTISRGNAMVFLQMNSLKSEDTAVYYCAARLGSVREAPREYTYWGQGTQVTVSS |  | binds | binds
